Source: the supplement of paper PMC11246515
± gives the standard deviation of the averaged measurements.

Assay: total protein half-life in vivo (active degradation + dilution); higher = more stable protein
[1] = E. coli NCM3722 delta-clpP delta-lon delta-hslV, growth: N-lim chemostat, doubling time 6 h
[2] = E. coli NCM3722 delta-clpP, growth: N-lim chemostat, doubling time 6 h
[3] = E. coli NCM3722 delta-hslV, growth: N-lim chemostat, doubling time 6 h
[4] = E. coli NCM3722 delta-lon, growth: N-lim chemostat, doubling time 6 h
[5] = E. coli NCM3722 delta-smpB, growth: N-lim chemostat, doubling time 6 h
[6] = wild type E. coli NCM3722, growth: C-lim chemostat, doubling time 3 h
[7] = wild type E. coli NCM3722, growth: C-lim chemostat, doubling time 6 h
[8] = wild type E. coli NCM3722, growth: C-lim chemostat, doubling time 12 h
[9] = wild type E. coli NCM3722, growth: N-lim chemostat, doubling time 6 h
[10] = wild type E. coli NCM3722, growth: N-lim chemostat, doubling time 12 h
[11] = wild type E. coli NCM3722, growth: P-lim chemostat, doubling time 6 h
[12] = wild type E. coli NCM3722, growth: P-lim chemostat, doubling time 12 h

Sequence	total protein half-life in vivo [1] [h]	total protein half-life in vivo [2] [h]	total protein half-life in vivo [3] [h]	total protein half-life in vivo [4] [h]	total protein half-life in vivo [5] [h]	total protein half-life in vivo [6] [h]	total protein half-life in vivo [7] [h]	total protein half-life in vivo [8] [h]	total protein half-life in vivo [9] [h]	total protein half-life in vivo [10] [h]	total protein half-life in vivo [11] [h]	total protein half-life in vivo [12] [h]
MTLNKTDRIVITLGKQIVHGKYVPGSPLPAEAELCEEFATSRNIIREVFRSLMAKRLIEMKRYRGAFVAPRNQWNYLDTDVLQWVLENDYDPRLISAMSEVRNLVEPAIARWAAERATSSDLAQIESALNEMIANNQDREAFNEADIRYHEAVLQSVHNPVLQQLSIAISSLQRAVFERTWMGDEANMPQTLQEHKALFDAIRHQDGDAAEQAALTMIASSTRRLKEIT	5.42 ± 0.19	5.12 ± 0.7	4.89 ± 0.076	5.07 ± 0.42	4.36 ± 0.15	2.87 ± 0.24	5.54 ± 0.089	9.94 ± 0.54	4.79 ± 0.079	7.99 ± 0.64	4.902 ± 0.047	10.15 ± 0.052
MKIRSQVGMVLNLDKCIGCHTCSVTCKNVWTGREGMEYAWFNNVETKPGIGYPKNWEDQEEWQGGWVRDVNGKIRPRLGNKMGVITKIFANPVVPQIDDYYEPFTFDYEHLHSAPEGKHIPTARPRSLIDGKRMDKVIWGPNWEELLGGEFEKRARDRNFEAMQKEMYGQFENTFMMYLPRLCEHCLNPSCVATCPSGAIYKREEDGIVLIDQDKCRGWRLCISGCPYKKIYFNWKSGKSEKCIFCYPRIESGQPTVCSETCVGRIRYLGVLLYDADRIEEAASTEREVDLYERQCEVFLDPHDPSVIEEALKQGIPQNVIDAAQRSPVYKMAMDWKLALPLHPEYRTLPMVWYVPPLSPIQSYADAGGLPKSEGVLPAIESLRIPVQYLANMLSAGDTGPVLRALKRMMAMRHYMRSQTVEGVTDTRAIDEVGLSVAQVEEMYRYLAIANYEDRFVIPTSHREMAGDAFAERNGCGFTFGDGCHGSDSKFNLFNSSRIDAINITEVRDKAEGE	6.49 ± 0.73	5.74 ± 0.49	6.23 ± 0.64	6.34 ± 1.3	5.77 ± 1.2	3.14 ± 0.27	5.54 ± 0.12	10.3 ± 0.17	5.94 ± 0.089	12.5 ± 0.46	5.68 ± 0.26	11.62 ± 0.051
MNKETQPIDRETLLKEANKIIREHEDTLAGIEATGVTQRNGVLVFTGDYFLDEQGLPTAKSTAVFNMFKHLAHVLSEKYHLVD [P0AB61]	5.24 ± 0.27	3.59	3.12 ± 0.036	3.65 ± 0.14	2.91 ± 0.23	2.64	4.89 ± 0.3	9.62 ± 3.9	2.5 ± 0.063	4.72	6.02	
MPRANEIKKGMVLNYNGKLLLVKDIDIQSPTARGAATLYKMRFSDVRTGLKVEERFKGDDIVDTVTLTRRYVDFSYVDGNEYVFMDKEDYTPYTFTKDQIEEELLFMPEGGMPDMQVLTWDGQLLALELPQTVDLEIVETAPGIKGASASARNKPATLSTGLVIQVPEYLSPGEKIRIHIEERRYMGRAD [P0A6N8]	5.17 ± 0.42	4.37 ± 0.34	4.21 ± 0.071	5.35 ± 0.38	4.45 ± 0.71	3.25 ± 0.46	5.42 ± 0.098	11.1 ± 0.96	4.59 ± 0.062	6.944 ± 0.044	5.26 ± 0.26	9.67 ± 0.66
MTHDNIDILVVDDDISHCTILQALLRGWGYNVALANSGRQALEQVREQVFDLVLCDVRMAEMDGIATLKEIKALNPAIPVLIMTAYSSVETAVEALKTGALDYLIKPLDFDNLQATLEKALAHTHSIDAETPAVTASQFGMVGKSPAMQHLLSEIALVAPSEATVLIHGDSGTGKELVARAIHASSARSEKPLVTLNCAALNESLLESELFGHEKGAFTGADKRREGRFVEADGGTLFLDEIGDISPMMQVRLLRAIQEREVQRVGSNQIISVDVRLIAATHRDLAAEVNAGRFRQDLYYRLNVVAIEVPSLRQRREDIPLLAGHFLQRFAERNRKAVKGFTPQAMDLLIHYDWPGNIRELENAVERAVVLLTGEYISERELPLAIASTPIPLGQSQDIQPLVEVEKEVILAALEKTGGNKTEAARQLGITRKTLLAKLSR	5.51 ± 2.1	3.79 ± 0.11	2.98 ± 0.35	4.45 ± 1.4	2.79 ± 0.13	2.64 ± 0.3	3.94 ± 1.3	6.74 ± 1.1	2.89	4.34 ± 0.63	3.93 ± 0.27	7.36 ± 0.67
MRTISYSEARQNLSATMMKAVEDHAPILITRQNGEACVLMSLEEYNSLEETAYLLRSPANARRLMDSIDSLKSGKGTEKDIIE	2.74	2 ± 0.78	2.66 ± 0.31		3.15	> 4	1.57 ± 0.23	2.2 ± 1.2	1.8	2.86 ± 0.17	1.67	3.61 ± 0.31
